Biological target: LCMV clone 13 nucleocapsid protein (NP), purified recombinant (Lymphocytic choriomeningitis virus, …, UniProt P09992, strain)
Assay: ELISA

B1: most expanded antibody variant of the NP-specific, second most expanded IgG clone (antibody, V domains shown)
VH: EVQLQQSGPELVKPGASVKMSCKASGYTFTDYNMHWVKQSHGKSLEWIGYINPNNGGTSYNQKFKGKATLTVNKSSSTAYMELRSLTSEDSAVYYCAREGGYWYFDVWGTGTTVTVSS
VL: DIVMTQSHKFMSTSVGDRVSITCKASQDVSTAVAWYQQKPGQSPKLLIYWASTRHTGVPDRFTGSGSGTDYTLTISSVQAEDLALYYCQQHYSTPFTFGSGTKLEIK
- binding result: binds
